Substitutions are numbered along the chain they refer to.
Assays:
[1] = molecular target: T1, recombinant mature dimeric myostatin (human and mouse (mature sequences 100% …, UniProt O08689 268-376)); test: ActRIIb neutralisation ELISA: inhibition of 2 nM biotinylated myostatin binding to coated ActRIIb
T1 construct: also called GDF-8; mature myostatin
T1 sequence: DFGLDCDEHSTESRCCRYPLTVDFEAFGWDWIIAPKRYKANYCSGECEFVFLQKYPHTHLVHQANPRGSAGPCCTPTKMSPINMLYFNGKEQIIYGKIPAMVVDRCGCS
Experimental: Recombinant soluble ActRIIb (R&D Systems 339-RBB) was coated in wells of an ELISA plate at 1 μg/ml in carbonate buffer overnight at 4° C. Plates were blocked with PBS containing 0.1% tween 20 and 0.1% BSA and washed following standard ELISA protocols. In parallel, 2 nM biotinylated myostatin (in-house reagent, described above) was pre-incubated with a dilution series of the antibodies of Tables 21 and 22 for 30 minutes at 37° C. The biotinylated myostatin:antibody reactions were then added (50 μl/well) to the ActRIIb coated plate for 1 hour at 37° C. Standard wash procedures were followed prior to addition of 50 μl per well of a 1:200 diluted streptavidin-HRP conjugate (R&D Systems. #890803) followed by a further 37° C. incubation for 1 hour. Plates were again washed and assayed at absorbance 490 nm following substrate (R&D Systems, #DY999) and acid stop solution treatment.

[2] = molecular target: T1, recombinant mature dimeric myostatin; test: Kinexa solution phase affinity
Experimental: Kinexa (Sapidyne Instruments) solution phase affinity was used to determine the overall affinity for a range of anti-myostatin molecules. Myostatin beads were prepared either by adsorption (polymethylmethacrylate beads-PMMA) or amine coupling (NHS-activated sepharose beads). The range of anti-myostatin molecules studied necessitated the generation of beads coated with different concentrations of myostatin. For the solution phase portion of the assay, a fixed concentration of antibody was incubated with a broad range of myostatin concentrations and allowed to reach equilibrium by incubation at r.t. for at least 2 h before analysis proceeded. The myostatin beads were then used to determine the amount of free antibody present in the solution phase samples, by means of the free antibody binding to the myostatin bead matrix then detected using an appropriate secondary antibody (either anti-human or anti-mouse depending on the construct being tested) labelled with a fluorescent dye. The binding curves where fitted using the Kinexa Pro analysis software inherent to the machine. Multiple runs using varying starting concentrations of antibody were then compiled and analysed using the n-curve analysis software to give a more accurate determination of affinity.

[3] = molecular target: T2, Fc R 2a Arg polymorphism (UniProt P12318 34-217, limits assumed); test: ProteOn XPR36 SPR, antibody immobilised, receptor 8-2048 nM, equilibrium model
T2 construct: also called FcγRIIa Arg
T2 sequence (looked up): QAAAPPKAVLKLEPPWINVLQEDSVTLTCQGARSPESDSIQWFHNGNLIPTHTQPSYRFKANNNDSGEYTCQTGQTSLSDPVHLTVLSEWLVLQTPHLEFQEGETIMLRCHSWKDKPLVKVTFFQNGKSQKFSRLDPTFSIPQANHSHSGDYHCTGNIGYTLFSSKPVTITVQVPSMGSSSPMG
Experimental: (§1) Binding analysis to Fc R5 and C1q was carried out using the ProteOn XPR36. The test antibodies (H8L5 and Fc-disabled H8L5) were immobilised on a GLC biosensor chip by primary amine coupling. The Fc Rs were used at 2048 nM, 512 nM, 128 nM, 32 nM and 8 nM, while C1q was used at 512 nM, 128 nM, 32 nM, 8 nM and 2 nM. A buffer injection (i.e. 0 nM) was used to double reference the binding sensorgrams. Due to the nature of the interaction (i.e. fast on/fast-off) regeneration was not required and the binding sensorgrams returned to baseline by use of a 20 min dissociation time and subsequent buffer injections. The data was fitted to the Equilibrium model inherent to the PrateOn's analysis software, using a global R-max for each receptor group and for C1q binding (i.e. Fc R 2aHis and Arg polymorphisms were analysed together and Fc R3aPhe and Val polymorphisms were analysed together, while C1q was analysed separately).

[4] = molecular target: T3, Fc R 2a His polymorphism (UniProt P12318 34-217, limits assumed); test: as above
T3 construct: also called FcγRIIa His
T3 sequence (looked up): T2 sequence (looked up) with R134H
Experimental: as §1

[5] = molecular target: T4, Fc R3a Val polymorphism (UniProt P08637 17-208, limits assumed); test: as above
T4 construct: also called FcγRIIIa Val
T4 sequence (P08637 17-208 F176V limits assumed): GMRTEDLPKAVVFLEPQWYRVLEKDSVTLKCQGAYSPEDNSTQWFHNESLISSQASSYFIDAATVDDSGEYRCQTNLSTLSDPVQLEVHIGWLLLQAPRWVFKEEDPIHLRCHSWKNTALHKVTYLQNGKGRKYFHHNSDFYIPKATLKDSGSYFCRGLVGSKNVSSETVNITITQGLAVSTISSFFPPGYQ
Experimental: as §1

[6] = molecular target: T5, Fc R3a Phe polymorphism (UniProt P08637 17-208, limits assumed); test: as above
T5 construct: also called FcγRIIIa Phe
T5 sequence (P08637 17-208 limits assumed): as the sequence (P08637 17-208 F176V limits assumed) above, with V160F counted along it
Experimental: as §1

[7] = molecular target: T6, rhBMP6 (human, UniProt P22004); test: ELISA: plate coated with the growth factor at 0.5 µg/ml, H8L5 titrated; read-out % Bound
T6 construct: recombinant (rh); form not further stated; member of the growth factor panel m51, named only on the sheet
T6 sequence (looked up): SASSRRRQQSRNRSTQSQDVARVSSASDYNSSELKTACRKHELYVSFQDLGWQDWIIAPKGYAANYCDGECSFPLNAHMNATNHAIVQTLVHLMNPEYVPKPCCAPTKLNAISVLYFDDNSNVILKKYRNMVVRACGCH

[8] = molecular target: T7, rhBMP9 (human, UniProt Q9UK05); test: as above
T7 construct: recombinant (rh); form not further stated; member of the growth factor panel m51, named only on the sheet
T7 sequence (looked up): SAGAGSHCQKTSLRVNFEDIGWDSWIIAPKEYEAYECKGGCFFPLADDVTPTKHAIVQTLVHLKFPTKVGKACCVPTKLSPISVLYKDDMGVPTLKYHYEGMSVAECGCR

[9] = molecular target: T1, recombinant mature dimeric myostatin; test: cell-based or functional assay
[10] = molecular target: T8, GDF-11 (UniProt O95390 299-407); test: ELISA, growth factors coated at 0.5 µg/ml, H8L5 titrated
T8 construct: also called Growth and Differentiation Factor-11
T8 sequence (looked up): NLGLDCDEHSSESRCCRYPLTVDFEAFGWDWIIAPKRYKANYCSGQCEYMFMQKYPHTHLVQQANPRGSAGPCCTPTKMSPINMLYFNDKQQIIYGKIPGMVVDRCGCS
Experimental: An ELISA was performed to determine whether H8L5 might bind any other growth factors and especially other members of the TGF family which were known to share some homology around the proposed epitope sequence. By coating an ELISA plate with the various growth factors at 0.5 μg/ml and titrating in H8L5 under standard ELISA conditions, It was concluded that the only other factor tested to which H8L5 could bind was GDF-11 wherein the concentration required to give 50% binding was 3-fold lower than myostatin (FIG. 22).

B1: H8L5 (antibody, IgG1)
heavy: not shown
light: DIQMTQSPSSLSASVGDRVTITCKASQDINSYLSWFQQKPGKAPKTLIYRANRLVDGVPSKFSGSGSGTDYTLTISSLQPEDFATYYCLQSDEFPLTFGQGTKLEIKRTVAAPSVFIFPPSDEQLKSGTASVVCLLNNFYPREAKVQWKVDNALQSGNSQESVTEQDSKDSTYSLSSTLTLSKADYEKHKVYACEVTHQGLSSPVTKSFNRGEC
notes: Humanised IgG1/kappa; also called 10B3H8L5; copies: 2 + 2
- IC50 [1]: 101 pM
- Kd [2]: 50 pM
- binding result [3]: binds
- binding result [4]: binds
- binding result [5]: binds
- binding result [6]: binds
- binding result [7]: no binding (tested: 10^-7 (axis prints no unit))
- binding result [8]: no binding (tested: 10^-7 (axis prints no unit))
- IC50, myostatin responsive reporter gene neutralisation assay (A204) [9]: 5000 pM
- fold lower concentration required to give 50% binding than for myostatin [10]: 3 fold

Reference: US20130142788A1 (published 2013)
